Experimental findings from article PMC5103296, “New structural insight of C-terminal region of Syntenin-1, enhancing the molecular dimerization and inhibitory function related on Syndecan-4 signaling” (Scientific Reports, 2016) are described below.

For one data set, the target named is syndecan-4-YFP (UniProt P34901). The data set is described as follows: FRET or BRET; FRET after acceptor (YFP) photobleaching in REFs expressing syndecan-4-YFP and PKM-CFP. In general terms: BRET reads energy transfer from a luciferase to a nearby fluorophore.
Sequence of syndecan-4-YFP (P34901 24-202): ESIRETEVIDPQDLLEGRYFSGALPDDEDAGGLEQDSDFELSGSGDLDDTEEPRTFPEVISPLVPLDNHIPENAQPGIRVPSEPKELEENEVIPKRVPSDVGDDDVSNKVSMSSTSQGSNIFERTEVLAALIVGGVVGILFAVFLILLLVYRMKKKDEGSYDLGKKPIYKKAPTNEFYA
Data set [1] deals with the molecule itself. The data set is described as follows: SEC; HiLoad 16/600 Superdex 75; 20 mM sodium phosphate, 100 mM NaCl, 0.01% NaN3, 5 mM dithiothreitol, pH 7.0; mass from calibration with standards. (Size exclusion chromatography separates by hydrodynamic size, large species first.)
Data set [2] deals with the molecule itself. The data set is described as above. The source holds these as a separate data set.
Data set [3] has as its target T1, syntenin-1 PDZ2 construct containing the C-terminal tail (PDZ2C).
T1 chain: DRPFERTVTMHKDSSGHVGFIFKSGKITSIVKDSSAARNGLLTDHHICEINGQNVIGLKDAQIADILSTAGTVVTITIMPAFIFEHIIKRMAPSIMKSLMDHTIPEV
The data set is described as above. As to conditions: both partners purified.

Data set [4] deals with the molecule itself. The data set is described as follows: crystal structure; syntenin-1 mixed with 4C2 at a 1:4 molar ratio; micro batch under oil; 0.2 M lithium sulfate monohydrate, 0.1 M Tris hydrochloride pH 8.5, 30% PEG 4000; 2.8 Å.

Like-named read-outs stand apart in the source and are kept apart here.

Molecule “PKC catalytic domain (PKM)-CFP (domain or fragment)” came in with an FRET efficiency with syndecan-4-YFP of 6.39%.

B1: His-tagged syntenin-1 (His-STN) (domain or fragment)
chain: AEIKQGIREVILCKDQDGKIGLRLKSVDNGIFVQLVQANSPASLVGLRFGDQVLQINGENCAGWSSDKAHKVLKQAFGEKITMTIRDRPFERTVTMHKDSSGHVGFIFKSGKITSIVKDSSAARNGLLTDHHICEINGQNVIGLKDAQIADILSTAGTVVTITIMPAFIFEHIIKRMAPSIMKSLMDHTIPEV
notes: syntenin-1 (STN), recombinant construct with PDZ1, PDZ2 and the C-terminal region; printed M.W 21.8 kDa; The residue numbers (H210, V211) fit the rat protein (surmised); also called STN-1; source: recombinant, purified (Ni-NTA)
B1: the “stoichiometry N” value in data set [1] and in data set [2] was 2 throughout.

B2: syntenin-1 PDZ2 construct containing the C-terminal tail (PDZ2C) (domain or fragment)
chain: DRPFERTVTMHKDSSGHVGFIFKSGKITSIVKDSSAARNGLLTDHHICEINGQNVIGLKDAQIADILSTAGTVVTITIMPAFIFEHIIKRMAPSIMKSLMDHTIPEV
modifications: limits not given; same start as PDZ2 through the native C-terminus, consistent with the printed 11.7 kDa; homodimer by gel filtration / limits not given; same start as PDZ2 through the native …
For B2, the “stoichiometry N” value in data set [3] amounted to 2.

B3: syndecan-4 cytoplasmic domain peptide corresponding to the C2 region (4C2) (peptide)
peptide: APTNEFYA
notes: C2 region of the cytoplasmic domain of rat syndecan-4, residues 195-202; Seen as a dimer in the crystal of the syntenin-1/4C2 complex; also called syndecan peptide; source: synthetic peptide (Anygen Inc.)
Regarding B3, the binding result in data set [4] is “binds”.

In general, stoichiometry N refers to a count of units in the complex or per binding partner.
